{"source": "FireProtDB (doi:10.1006/jmbi.2001.4956)", "parents": {"B1": {"name": "Guanyl-specific ribonuclease Sa3, P30289 (parent)", "chain": "MRIPPRLVALAGAAAVAATLIAGPVAAAAPASHAVAASSAASASVKAVGRVCYSALPSQAHDTLDLIDEGGPFPYSQDGVVFQNREGLLPAHSTGYYHEYTVITPGSPTRGARRIITGQQWQEDYYTADHYASFRRVDFAC"}, "B2": {"name": "Guanyl-specific ribonuclease Sa, P05798 (parent)", "chain": "DVSGTVCLSALPPEATDTLNLIASDGPFPYSQDGVVFQNRESVLPTQSYGYYHEYTVITPGARTRGTRRIITGEATQEDYYTGDHYATFSLIDQTC"}}}
{"variants_of": "B1", "details": "Kitasatospora aureofaciens; pH 7; 25 °C; Thermal; CD; MOPS 30 mM; reversible: yes(>95 %); structure 1MGR; whole UniProt chain shown", "units": {"ddG of mutation (higher = less stable)": "kcal/mol"}}
{"variant": "Y100F", "ddG of mutation (higher = less stable)": 0.7}
{"variant": "Y131F", "ddG of mutation (higher = less stable)": 0}
{"variant": "Y126F", "ddG of mutation (higher = less stable)": 1}
{"variant": "Y125F", "ddG of mutation (higher = less stable)": 1.5}
{"variant": "Y97F", "ddG of mutation (higher = less stable)": 2.1}
{"variant": "Y75F", "ddG of mutation (higher = less stable)": -0.5}
{"variants_of": "B2", "details": "Kitasatospora aureofaciens; pH 7; 25 °C; Thermal; CD; MOPS 30 mM; reversible: yes(>95 %); structure 1RGG; whole UniProt chain shown", "units": {"ddG of mutation (higher = less stable)": "kcal/mol"}}
{"variant": "Y30F", "ddG of mutation (higher = less stable)": -0.4}
{"variant": "Y49F", "ddG of mutation (higher = less stable)": 0.2}
{"variant": "Y55F", "ddG of mutation (higher = less stable)": 0.6}
{"variant": "Y80F", "ddG of mutation (higher = less stable)": 1.5}
{"variant": "Y81F", "ddG of mutation (higher = less stable)": 1.2}
{"variant": "Y86F", "ddG of mutation (higher = less stable)": 0.3}
{"variant": "Y52F", "ddG of mutation (higher = less stable)": 3.6}
